From the supplement of paper PMC7125110
± gives the standard error. For some assays here: This sample holds only a part of the variants without activity.

B1: glmS ribozyme (parent)
chain: AUAAAAGCGCCAGAACUACAGAAAUGUAGUUGACGAGGAGGAGGUUUAUCGAAUUUUCGGCGGAUGCCUCCAAA

Experiments:
Conditions in all cases: with glucosamine-6-phosphate
[1] = variants of: B1; test: kcat; higher = faster cleavage; RNA array
Method in brief: (§1)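 Barcoded ribozyme variants were transcribed in situ on sequenced MiSeq chips by E. coli RNA polymerase. At 37 °C, a hybridised Cy3 probe tracked them while glucosamine-6-phosphate (40 μM to 10 mM) in HEPES/KCl/Mg(OAc)2 buffer flowed in and tiles were imaged over ~14 h. Per-tile medians of signals normalised to baseline and to non-cleaving reference variants were fit to one- or two-exponential decays, giving kobs. kcat and KM came from weighted Michaelis–Menten fits across concentrations.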

[2] = variants of: B1; test: KM; higher = weaker cofactor use; RNA array
Method in brief: as §1

[3] = variants of: B1; test: self-cleavage kobs at 160 uM GlcN6P; higher = faster cleavage; RNA array
Method in brief: as §1

[4] = variants of: B1; test: self-cleavage kobs at 640 uM GlcN6P; higher = faster cleavage; RNA array
Method in brief: as §1

[5] = variants of: B1; test: self-cleavage kobs at 2500 uM GlcN6P; higher = faster cleavage; RNA array
Method in brief: as §1

[6] = variants of: B1; test: self-cleavage kobs at 10000 uM GlcN6P; higher = faster cleavage; RNA array
Method in brief: as §1

[7] = variants of: B1; test: self-cleavage kobs at 40 uM GlcN6P; higher = faster cleavage; RNA array
Method in brief: as §1

Variant | kcat [1] | KM [2] | self-cleavage kobs at 160 uM GlcN6P [3] | self-cleavage kobs at 640 uM GlcN6P [4] | self-cleavage kobs at 2500 uM GlcN6P [5] | self-cleavage kobs at 10000 uM GlcN6P [6] | self-cleavage kobs at 40 uM GlcN6P [7]
G43U G66A | 2.89e-05 ± 1.6e-06 s⁻¹ | 431 ± 170 µM | – | – | – | – | –
U54A U69G | 6.78e-05 ± 1.1e-05 s⁻¹ | – | 6.31e-05 ± 2.8e-05 s⁻¹ | 9.07e-05 ± 1.8e-05 s⁻¹ | 9.01e-05 ± 1.6e-05 s⁻¹ | 5.62e-05 ± 8.3e-06 s⁻¹ | –
A12C A39C | 0.000611 ± 4.3e-05 s⁻¹ | 2060 ± 260 µM | 3.75e-05 ± 7.9e-06 s⁻¹ | 0.000149 ± 1.2e-05 s⁻¹ | 0.000343 ± 3e-05 s⁻¹ | 0.000499 ± 4.2e-05 s⁻¹ | 1.91e-05 ± 9.4e-06 s⁻¹
A15U C70U | 0.00472 ± 0.0018 s⁻¹ | 1330 ± 650 µM | 0.000378 ± 4.7e-05 s⁻¹ | 0.00147 ± 0.00031 s⁻¹ | 0.00286 ± 0.00048 s⁻¹ | 0.00469 ± 0.00065 s⁻¹ | 0.000195 ± 1.7e-05 s⁻¹
G32A A33U | 5.7e-05 ± 3e-06 s⁻¹ | 4530 ± 700 µM | – | – | – | 3.92e-05 ± 6.3e-06 s⁻¹ | –
G32A U55C | 0.00196 ± 0.00036 s⁻¹ | 2790 ± 760 µM | 9.47e-05 ± 1.6e-05 s⁻¹ | 0.000403 ± 4.8e-05 s⁻¹ | 0.00122 ± 0.0002 s⁻¹ | 0.00143 ± 0.00018 s⁻¹ | –
G13C C58A C61U C70G | 1.31e-05 ± 2.2e-06 s⁻¹ | – | – | – | – | – | –
U55G U57A | 0.000252 ± 8.2e-06 s⁻¹ | 2520 ± 190 µM | – | 5.17e-05 ± 1e-05 s⁻¹ | 0.000124 ± 1.5e-05 s⁻¹ | 0.000203 ± 2e-05 s⁻¹ | –
C11U U54C | 0.00157 ± 0.00021 s⁻¹ | 990 ± 210 µM | 0.000204 ± 9.2e-05 s⁻¹ | 0.000616 ± 0.00017 s⁻¹ | 0.00092 ± 0.00024 s⁻¹ | 0.00167 ± 0.00033 s⁻¹ | 6.42e-05 ± 1.2e-05 s⁻¹
C16G U56G | 0.00338 ± 0.00054 s⁻¹ | 1220 ± 320 µM | 0.000387 ± 9.6e-05 s⁻¹ | 0.000953 ± 0.00023 s⁻¹ | 0.00213 ± 0.00038 s⁻¹ | 0.00348 ± 0.00064 s⁻¹ | 0.000129 ± 2.5e-05 s⁻¹
U31C G40C | 0.000274 ± 4.9e-05 s⁻¹ | – | – | 0.000125 ± 5e-05 s⁻¹ | 0.000177 ± 4e-05 s⁻¹ | 0.000287 ± 6.9e-05 s⁻¹ | –
A42G C71G | 0.00124 ± 0.0003 s⁻¹ | 510 ± 230 µM | 0.000264 ± 4.3e-05 s⁻¹ | 0.000668 ± 8.8e-05 s⁻¹ | 0.000941 ± 0.00016 s⁻¹ | 0.00158 ± 0.0003 s⁻¹ | 0.000167 ± 3.5e-05 s⁻¹
U31A U55C | 0.0168 ± 0.0039 s⁻¹ | 3130 ± 990 µM | 0.000647 ± 0.00012 s⁻¹ | 0.00293 ± 0.00082 s⁻¹ | 0.00826 ± 0.0023 s⁻¹ | 0.0127 ± 0.0018 s⁻¹ | 0.000283 ± 4.3e-05 s⁻¹
G59A C70A | 1.52e-05 ± 3.7e-06 s⁻¹ | – | – | – | – | – | –
U55G G62U | < 1e-05 s⁻¹ | – | < 1e-05 s⁻¹ | – | – | < 1e-05 s⁻¹ | –
G44A C71U | 9.17e-05 ± 8.5e-06 s⁻¹ | 1020 ± 370 µM | – | 2.9e-05 ± 1e-05 s⁻¹ | 7.37e-05 ± 9.8e-06 s⁻¹ | 7.95e-05 ± 9.2e-06 s⁻¹ | –

Variant | kcat [1] | KM [2] | self-cleavage kobs at 160 uM GlcN6P [3] | self-cleavage kobs at 640 uM GlcN6P [4] | self-cleavage kobs at 2500 uM GlcN6P [5] | self-cleavage kobs at 10000 uM GlcN6P [6] | self-cleavage kobs at 40 uM GlcN6P [7]
G9A C16A | < 1e-05 s⁻¹ | 31.6 ± 7.6 µM | – | – | – | – | –
C61U A64G | 2.3e-05 ± 9.4e-07 s⁻¹ | 1200 ± 250 µM | < 1e-05 s⁻¹ | – | – | – | < 1e-05 s⁻¹
G29U C61A | 1.26e-05 ± 2.3e-06 s⁻¹ | – | – | – | – | – | < 1e-05 s⁻¹
G29A U49G | 6e-05 ± 8e-06 s⁻¹ | – | – | 4.72e-05 ± 1.7e-05 s⁻¹ | 4.32e-05 ± 1.4e-05 s⁻¹ | 6.26e-05 ± 1.1e-05 s⁻¹ | –
A12U U56C | 0.0355 ± 0.014 s⁻¹ | 2940 ± 1400 µM | 0.00159 ± 0.00028 s⁻¹ | 0.00808 ± 0.0013 s⁻¹ | – | 0.0251 ± 0.0075 s⁻¹ | 0.000487 ± 0.00011 s⁻¹
C10A C67G | 8.97e-05 ± 1.7e-05 s⁻¹ | – | – | 8.76e-05 ± 1.4e-05 s⁻¹ | 7.6e-05 ± 1.7e-05 s⁻¹ | – | 2.69e-05 ± 1.1e-05 s⁻¹
U47C U54C | 0.00359 ± 0.00063 s⁻¹ | 1240 ± 310 µM | 0.000434 ± 7.2e-05 s⁻¹ | 0.00141 ± 0.00017 s⁻¹ | 0.00299 ± 0.00053 s⁻¹ | 0.00275 ± 0.00046 s⁻¹ | 9.72e-05 ± 1.5e-05 s⁻¹
U57G C68A C70U | 3.59e-05 ± 1.7e-05 s⁻¹ | – | – | 5.38e-05 ± 1.8e-05 s⁻¹ | – | – | –
U30G G41C | 0.00013 ± 5.4e-06 s⁻¹ | 2760 ± 240 µM | – | – | 6.27e-05 ± 1.2e-05 s⁻¹ | 0.000101 ± 2.7e-05 s⁻¹ | –
U57A U69A | 3.14e-05 ± 6.3e-06 s⁻¹ | – | – | – | 3.75e-05 ± 1.1e-05 s⁻¹ | – | –
U49A A64G | 2.04e-05 ± 1.6e-06 s⁻¹ | 2090 ± 850 µM | – | – | – | – | –
A39C U45A A53U C70U | 4.71e-05 ± 2.2e-06 s⁻¹ | 835 ± 200 µM | – | – | – | 4.34e-05 ± 1.8e-05 s⁻¹ | –
A15G U55G | 0.0139 ± 0.0046 s⁻¹ | 683 ± 310 µM | 0.00183 ± 0.00047 s⁻¹ | 0.00997 ± 0.0026 s⁻¹ | 0.0187 ± 0.0059 s⁻¹ | 0.0118 ± 0.0027 s⁻¹ | 0.000914 ± 0.00013 s⁻¹
C16G A39C U54G | 0.00043 ± 5.6e-05 s⁻¹ | 1500 ± 410 µM | – | 0.000133 ± 2.1e-05 s⁻¹ | 0.000227 ± 5.8e-05 s⁻¹ | 0.000394 ± 6e-05 s⁻¹ | –
G38A C50G G63U C71A | 4.03e-05 ± 1.2e-05 s⁻¹ | – | 7.25e-05 ± 2.2e-05 s⁻¹ | 4.7e-05 ± 2.1e-05 s⁻¹ | 3.94e-05 ± 1.3e-05 s⁻¹ | – | –
C16A A39C | 0.000305 ± 1.9e-05 s⁻¹ | 4340 ± 490 µM | – | 3.69e-05 ± 1.3e-05 s⁻¹ | 0.000114 ± 1.5e-05 s⁻¹ | 0.00021 ± 2.9e-05 s⁻¹ | –
